T1: androgen receptor N-terminus (AR18-500) (Rattus norvegicus, UniProt P15207)
T1 construct: receptor residues 18 through 500 (using the rat androgen receptor number scheme); expressed in transfected cells; host or cells: Saccharomyces cerevisiae EGY188
T1 sequence (P15207 18-500): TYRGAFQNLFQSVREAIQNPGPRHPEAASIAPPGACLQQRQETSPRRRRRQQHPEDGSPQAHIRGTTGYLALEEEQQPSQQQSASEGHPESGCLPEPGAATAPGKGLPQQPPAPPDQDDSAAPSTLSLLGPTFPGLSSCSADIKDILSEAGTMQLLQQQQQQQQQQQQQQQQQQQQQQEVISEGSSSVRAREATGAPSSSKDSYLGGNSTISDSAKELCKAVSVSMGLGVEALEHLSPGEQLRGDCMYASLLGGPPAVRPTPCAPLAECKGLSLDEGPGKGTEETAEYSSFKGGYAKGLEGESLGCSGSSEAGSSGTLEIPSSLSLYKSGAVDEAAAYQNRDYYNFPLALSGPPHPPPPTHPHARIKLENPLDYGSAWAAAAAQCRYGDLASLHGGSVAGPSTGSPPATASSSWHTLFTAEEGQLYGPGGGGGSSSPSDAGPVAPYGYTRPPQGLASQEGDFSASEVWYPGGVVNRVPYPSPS

T2: androgen receptor (AR) N-terminus (18-500) (Rattus norvegicus, UniProt P15207)
T2 construct: receptor residues 18 through 500 (using the rat androgen receptor number scheme); expressed in transfected cells; host or cells: Saccharomyces cerevisiae EGY188
T2 sequence (P15207 18-500): T1 sequence (P15207 18-500)

T3: androgen receptor ligand-binding domain (579-901) (Rattus norvegicus, UniProt P15207)
T3 construct: expressed in transfected cells; host or cells: yeast (modified two-hybrid assay)
T3 sequence (P15207 579-901): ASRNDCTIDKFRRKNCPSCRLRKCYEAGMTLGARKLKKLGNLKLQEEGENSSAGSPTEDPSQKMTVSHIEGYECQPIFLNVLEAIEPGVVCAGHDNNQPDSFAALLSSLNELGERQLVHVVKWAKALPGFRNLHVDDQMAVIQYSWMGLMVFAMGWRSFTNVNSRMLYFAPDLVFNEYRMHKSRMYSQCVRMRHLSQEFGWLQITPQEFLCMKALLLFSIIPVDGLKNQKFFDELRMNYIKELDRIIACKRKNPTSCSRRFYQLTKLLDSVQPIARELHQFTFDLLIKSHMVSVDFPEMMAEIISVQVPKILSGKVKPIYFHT

B1: ART-37: Androgen Receptor Trapped protein, SEQ ID NO:6, unknown function, represented in EST database (protein)
chain: EFGTRARFTRGKSALLERALARPRTEVSLSAFALLSPSWYSTARAVFSVAELQSRLAALGRQVGARVLDALVAREKGARRETKVLGALLFVKGAVWKALFGKEADKLEQANDDARTFYIIEREPLINTYISVPKENSTLNCASFTAGIVEAVLTHSGFPAKVTAHWHKGTTLMIKFEEAVIARDRLEGR
modifications: Human

Key:
[1] = target: T1, androgen receptor N-terminus (AR18-500); experiment: Modified yeast two-hybrid, quantitative liquid beta-galactosidase assay; assay type: binding; conditions: LexA-ART fusions vs AR18-500; twelve hour incubation in galactose-containing media
Protocol: (§1) The modified yeast two hybrid assay is described in Hittelman et al., 1999. EGY188 was transformed by the lithium acetate method with (i) pJG4-5:AR18-500, (ii) pEG202:LNCaP cell cDNA library and (iii) pJK103, a β-galactosidase reporter gene with a single LexA operator. Potential interacting proteins were selected by plating the cDNA library expressing transformants onto galactose plates lacking leucine and containing X-gal.
Yeast were grown in selective liquid media containing 2% glucose for approximately 12 hours, pelleted, washed once with sterile H2O, normalized according to cell number and resuspended to an optical density (OD600) of 0.15 in 2% galactose/1% raffinose. β-galactosidase assays were performed 12 hours later as described previously (Garabedian et al., 1992).
Out of approximately one million library transformants, eight clones were isolated that interact with the androgen receptor N-terminus. There protein factors were termed ARTs, for Androgen Receptor Trapped, by the present inventors. The eight ART clones were sequenced and were subjected to a database search using the BLAST program. A quantitative liquid beta-galactosidase assay was used to measure the relative strength of interaction between the androgen receptor N-terminus and the ARTs using the yeast two-hybrid system. The levels of expression of the ARTs in yeast were similar, as determined by immunoblotting using an antibody to the LexA DNA-binding domain that is common to all of the ARTs.
ARTs expressed as fusion proteins with the LexA DNA binding domain were analyzed for their ability to interact with AR18-500. The relative strength of interaction was determined by a quantitative liquid beta-galactosidase assay after a twelve hour incubation in galactose-containing media at 30EC. The LexA vector alone gives 1 unit of activity.

[2] = target: T2, androgen receptor (AR) N-terminus (18-500); experiment: Modified yeast two-hybrid, qualitative plate beta-galactosidase assay; assay type: binding; conditions: AR N-terminus, AR LBD, Sp1A, Sp1B, CREB, TAFII130, GR AF1, SRC-1
Source text: as §1
To analyze the specificity of ART interaction, the capacity of the strongest androgen receptor N-terminus-interacting factors to associate with a panel of transcriptional regulatory proteins in the modified yeast two-hybrid assay was examined. ART-5, ART-27, and ART-37 were tested for interaction with Sp1A (Sp183-262), Sp1B (Sp1263-524) the cyclic AMP response element binding protein (CREB3-296), TBP-associated factor 130 (TAFII130270-700), the glucocorticoid receptor AF1 (GR107-237), and the steroid receptor coactivator-1 (SRC-1374-800).
The strength of interaction was determined by a qualitative plate beta-galactosidase assay after a 24 hour incubation on galactose X-gal plates at 301 C.
ART-27 derivatives containing amino acids 1-45, 1-67, 1-127, 46-157, 68-157, 127-157, 1-157, and 1-45/127-157 were expressed as fusion proteins with LexA. These derivatives were tested for their ability to interact with the androgen receptor N-terminus (AR18-500). The strength of interaction was determined by a qualitative plate beta-galactosidase assay after a 24 hour incubation on galactose X-gal plates at 301 C.

[3] = target: T3, androgen receptor ligand-binding domain (579-901); experiment: Modified yeast two-hybrid specificity panel; conditions: absence or presence of hormone

Molecule	relative strength of interaction with androgen receptor N-terminus [1]	specificity of interaction among panel of transcriptional regulatory factors [2]	interaction with androgen receptor ligand binding domain [3]
ART-2: Androgen Receptor Trapped protein, SEQ ID NO:10, present in the EST database (EFGTRIHCPHNPRPTRRSTDHSISPSIDPHLQISHQQPTNHHPTMTNQTNLKTNDNHTQH; Human)	Weak	–	–
ART-6: Androgen Receptor Trapped protein, SEQ ID NO:8, an EST (EFGTRLKPYVSYLAPESEETPLTAAQLFSKPLAPCHRKGLQG; Human)	Intermediate strength	–	–
ART-9: corresponds to ZNF160, a zinc finger containing protein of unknown function	Weak	–	–
B1	strongest	relatively promiscuous	No interaction

Source: patent US20080081903A1, “METHOD FOR SCREENING TRANSCRIPTIONAL COREGULATORY PROTEINS OF TRANSCRIPTION FACTORS, AND ANDROGEN RECEPTOR TRANSCRIPTIONAL COREGULATORY PROTEINS AS TARGETS FOR ANDROGEN RECEPTOR-DEPENDENT DISEASES” (NEW YORK UNIVERSITY, priority 2001, published 2008)
